For experiment [1], the system named is Fas, caspase 8, caspase 3. Description: Western blot of Fas, cleaved caspase 8 and cleaved caspase 3 in BMMSCs. The class given is cell-based, mouse. The settings on record: for cleaved caspase 3 in IFN-γ/TNF-α-treated BMMSCs / cleaved caspase 8 in IFN-γ/TNF-α-treated BMMSCs: siRNA or inhibitor treatment before IFN-γ/TNF-α. The method, then: (§1) Western blot analysis. Total protein was extracted using M-PER mammalian protein extraction reagent (Thermo, Rockford, Ill.). Nuclear protein was obtained using NE-PER nuclear and cytoplasmic extraction reagent (Thermo). Protein was applied and separated on 4-12% NuPAGE gel (Invitrogen) and transferred to Immobilon™-P membranes (Millipore). The membranes were blocked with 5% non-fat dry milk and 0.1% tween-20 for 1 hour, followed by incubation with the primary antibodies (1:20¬1000 dilution) at 4° C. overnight. Horseradish peroxidase-conjugated IgG (Santa Cruz Biosciences; 1:10,000) was used to treat the membranes for 1 hour, and enhanced with a SuperSignal® West Pico Chemiluminescent Substrate (Thermo). The bands were detected on BIOMAX MR films (Kodak, Rochester, N.Y.). Each membrane was also stripped using a stripping buffer (Thermo) and reprobed with anti-β-actin antibody to quantify the amount of loaded protein.
(§2) SiRNAs for Fas, TNFR2, IKK, FLIP and XIAP were used to treat the BMMSCs according to the manufacture's instruction, and IFN-γ and TNF-α were added for 24 hrs. Inhibitors for internalization (Latrunculin A, 0.2 μM), pan caspase (Z-VAD (OMe)-FMK, 50 μM), caspase 8 ([…], 20 μM) and caspase 3 (Z-DEVD-FMK, 20 µM) were used to treat the BMMSCs at 4 hrs before IFN-γ and TNF-α were added. Cell apoptosis were analysis by immunofluorescence staining and FACS^Calibur (Annexin V-PE apoptosis detection kit I) and Western blot analysis for caspase 8, cleaved caspase 8, caspase 3 and cleaved caspase 3.
(A western blot detects proteins with antibodies after separation by electrophoresis.)

Experiment [2] deals with BMMSCs. Description: siRNA and inhibitors: IFN-γ/TNF-α-induced BMMSC death. The conditions noted are these: siRNA or inhibitor treatment before IFN-γ/TNF-α, toluidine blue staining. The class given is cell-based, mouse. Here is the method: as §2
The next experiment deals with Fas. Description: Fas internalization (immunocytochemical staining). The class given is cell-based, mouse. The settings on record: caspase inhibitor in IFN-γ/TNF-α-treated BMMSCs vs control group. The method, then: as §2
Fas internalization. P1 BMMSCs were seeded to 2-well chamber slide. IFN-γ (50 ng/ml) was added to pre-treat BMMSCs for 24 hours, and then TNF-α (20 ng/ml) was added. At the 0.5, 1, 2, 4 hours after TNF-α was added, the cells were washed by PBS twice, and fixed with 4% PFA for 15 min. After treated by Triton-X 15 min, the cells were blocked with normal serum matched to secondary antibodies, incubated with 1 μg/ml anti-Fas (Santa Cruz) antibody at room temperature for 2 hours, treated with Rhodamin-conjugated secondary antibodies (1:200, Jackson ImmunoResearch). Then the cells were incubated with ([…] (1:40; Invitrogen) at room temperature for 20 min, and were mounted by vectashield mounting medium DAPI (Vector Laboratories).

In experiment [3] the test system is BMMSCs. Kind of experiment: Cell apoptosis and cell survival assay in vitro (toluidine blue, Annexin V). The conditions noted are these: for BMMSC death / viability: single cytokine, 1-200 ng/ml, three days.
Description: Cell apoptosis and cell survival assay. 0.5×10^6 BMMSCs were seeded to 6-well culture plate and co-cultured with different doses of recombined IL-4, IL-6, IL-17A, TGF-β1, TNF-α and IFN-γ (0, 10, 20, 50, 100, 200 ng/ml) for 3 days. To measure the cell viability, the total cells were analyzed by using a cell counting kit-8 (Dojindo Molecular Technoloies, Gaithersburg, Md.) according to the manufacture's instruction. And the culture plates with cells were stained with 2% toluidine blue O and 2% paraformaldehyde (Sigma-Aldrich Corporate, St. Louis, Mo.).
For cell apoptosis analysis, the BMMSCs were stained by Annexin V-PE apoptosis detection kit I (BD Bioscience) following manufacture's protocol, and analyzed by FACS^Calibur (BD Bioscience).
IFN-γ and TNF-α synergism for apoptosis. For cell apoptosis staining, the 1×10^4 BMMSCs were seeded onto two chambers slide, IFN-γ (50 ng/ml) and TNF-α (20 ng/ml) were used to treat the BMMSCs for 24 hrs either separately or combined, Annexin V-PE apoptosis detection kit I (BD Bioscience) was used to stain the BMMSCs following manufacture's protocol, and analyzed on microscopy and FACS^Calibur (BD Bioscience). Cell viability was analyzed by using cell counting kit, and culture plates were stained with 2% toluidine blue O and 2% paraformaldehyde.
IFN-γ and TNF-α synergism for apoptosis. 0.5×10^6 BMMSCs were seeded to 6-well culture plate and co-cultured with different doses of TNF-α (0, 5, 50, 100 ng/ml) with or without IFN-γ (50 ng/ml) for I day. Then, the BMMSCs were stained by Annexin V-PE apoptosis detection kit I (BD Bioscience) following manufacture's protocol, and analyzed by FACS^Calibur (BD Bioscience).
For experiment [4], the system named is BMMSCs. Description: Osteogenic differentiation assay (alizarin red staining). Type of experiment: cell-based, mouse. The settings on record: for mineralized nodule formation / osteogenic differentiation of BMMSCs: alizarin red. Here is the method:
(§3) Osteogenic differentiation assay. BMMSCs were cultured under osteogenic culture condition media containing 2 mM […] (Sigma-Aldrich), 100 μM L-ascorbic acid 2-phosphate and 10 nM dexamethasone (Sigma-Aldrich). Different doses of IFN-γ (50, 200 ng/ml) were added to the osteogenic culture condition media every 3 days. After the osteogenic induction, the cultures were stained with alizarin red. Expressions of Runx2, ALP, and OCN were assayed by Western blot analysis.

The test system of experiment [5] is BMMSC-mediated bone formation. Description: BMMSC-mediated bone formation, subcutaneous BMMSC/HA/TCP implantation. The conditions noted are these: 200 ng cytokine in hydrogel co-implanted with BMMSCs/HA/TCP, immunocompromised mice, 8 weeks post implantation. Type of experiment: in vivo. The method, then: BMMSC-mediated bone formation. Approximately 4.0×10^6 BMMSCs were mixed with hydroxyapatite/tricalcium phosphate (HA/TCP) ceramic particles (40 mg, Zimmer Inc., Warsaw, Ind.) as a carrier and subcutaneously implanted into the dorsal surface of 8-10 weeks old immunocompromised mice or C57BL/6J mice. At eight weeks post-implantation, the implants were harvested, fixed in 4% paraformaldehyde and then decalcified with 5% EDTA (pH 7.4), followed by paraffin embedding. The 6 μm paraffin sections were stained with hematoxylin and eosin (H&E) and analyzed by an NIH Image J. Five fields were selected and newly formed mineralized tissue area in each field was calculated and shown as a percentage to total tissue area.
Cytokines in BMMSC-mediated bone formation. Approximately 4.0×10^6 of littermate-derived or autologous BMMSCs were mixed with HA/TCP ceramic powders (40 mg, Zimmer Inc.), and hydrogel (Glycosan Biosysterms, Salt Lake City, Utah) with 200 ng IFN-γ, TNF-α, IL-4, IL-6 or IL-17A were covered on the surface of the implants as a slow released system. At eight weeks post-implantation, the implants were harvested and newly formed mineralized tissue areas were analyzed. […]
BMMSC-mediated bone formation. Approximately 4.0×10^6 of littermate-derived or autologous BMMSCs were mixed with hydroxyapatite/tricalcium phosphate (HA/TCP) ceramic particles (40 mg, Zimmer Inc., Warsaw, Ind.) as a carrier and subcutaneously implanted into the dorsal surface of 8-10 weeks old immunocompromised mice or C57BL6 mice. When aspirin was used, BMMSCs were treated with 50 μg/ml aspirin for 2 days and mixed with HA/TCP particles to be subcutaneously implanted into immunocompromised mice. When IFN-γ and TNF-α were used in the subcutaneous implants, 200 ng IFN-γ, TNF-α or/and 100 μg aspirin mixed with 250 μl hydrogel as a slow released system and subcutaneously co-implanted to the dorsal surface of 8-10 weeks old immunocompromised mice.
At eight weeks post-implantation, the implants were harvested, fixed in 4% paraformaldehyde and then decalcified with 5% EDTA (pH 7.4), followed by paraffin embedding. The 6 μm paraffin sections were stained with hematoxylin and eosin (H&E) and analyzed by an NIH Image J. Five fields were selected and newly formed mineralized tissue area in each field was calculated and shown as a percentage to total tissue area.

In experiment [6] the test system is Smad 6, Smad 7, Runx2, ALP, OCN. Kind of experiment: Western blot of Smad 6, Smad 7 and osteogenic genes in BMMSCs. Type of experiment: cell-based, mouse. The method, then: as §3, §1
[7] abbreviates: 200 ng/ml cytokine, osteogenic media, 14 days.
The mark [8] stands for this setting: Fas^−/− BMMSCs from lpr mice and Fas knock down BMMSCs by siRNA.
Where [9] appears, read: wild type BMMSCs, IFN-γ 50 ng/ml, TNF-α 20 ng/ml, alone or co-stimulated.

Entries after “also recorded” stand apart in the source; their conditions may differ. Where a SMILES comes first, the peptide text is derived from it. The star is where a group is joined. Cbz = O=C(OCc1ccccc1)*; CH2F = FC*

As to `C/C1=C/C(=O)O[C@@H]2C[C@@H](CC[C@H](C)/C=C\C=C\CC1)O[C@@](O)([C@@H]1CSC(=O)N1)C2` [Lnt A, Latrunculin A], the “cleaved caspase 3 in IFN-γ/TNF-α-treated BMMSCs” value in experiment [1] is “significantly reduced”; in experiment [1] (listed as LntA) it was “inhibition of cleaved caspase 3 and 8”. Further, the “cleaved caspase 8 in IFN-γ/TNF-α-treated BMMSCs” value in experiment [1] is “significantly reduced”; in experiment [1] (listed as LntA), “inhibition of cleaved caspase 3 and 8”. For the same molecule, the “IFN-γ/TNF-α-induced BMMSC death” value with BMMSCs [2] was “significantly reduced”; in the experiment with BMMSCs [2] (listed as LntA), “partially rescue”.
Regarding `COC(=O)C[C@H](NC(=O)[C@H](C)NC(=O)[C@@H](NC(=O)OCc1ccccc1)C(C)C)C(=O)CF` [pan caspase inhibitor, Z-VAD (OMe)-FMK] (Cbz-Val-Ala-Asp(OMe)-CH2F), the “number of BMMSCs with Fas internalization” value in the experiment on Fas was “reduced number of Fas internalization”.
For “TGF-β1: recombined TGF-β1 cytokine co-cultured with BMMSCs”, the “BMMSC death / viability” value in the experiment on BMMSCs [3] (toluidine blue staining) was “no effect”.

B1: IL-6: Recombinant murine IL-6 purchased from PeproTech (protein, UniProt P08505 25-211, looked up)
Interleukin-6: FPTSQVRRGDFTEDTTPNRPVYTTSQVGGLITHVLWEIVEMRKELCNGNSDCMNNDDALAENNLKLPEIQRNDGCYQTGYNQEICLLKISSGLLEYHSYLEYMKNNLKDNKKDKARVLQRDTETLIHIFNQEVKDLHKIVLPTPISNALLTDKLESQKEWLRTKTIQFILKSLEEFLKVTLRSTRQT
B1: the “BMMSC death / viability” value in the experiment on BMMSCs [3] (toluidine blue staining) was “no effect”. Further, the “mineralized nodule formation / osteogenic differentiation of BMMSCs” value in the experiment with BMMSCs [4] (setting [7]) was “no inhibition effect”. In addition, in experiment [5], the “new bone formation in BMMSC implants” value was “a reduction in new bone formation; also recorded: slightly inhibited”.

B2: IL-4: Recombinant murine IL-4 purchased from PeproTech (protein, UniProt P07750 21-140, looked up)
Interleukin-4: HIHGCDKNHLREIIGILNEVTGEGTPCTEMDVPNVLTATKNTTESELVCRASKVLRIFYLKHGKTPCLKKNSSVLMELQRLFRAFRCLDSSISCTMNESKSTSLKDFLESLKSIMQMDYS
Take B2: the “BMMSC death / viability” value in the experiment with BMMSCs [3] (toluidine blue staining) is “no effect”. The “mineralized nodule formation / osteogenic differentiation of BMMSCs” value in the experiment with BMMSCs [4] (setting [7]) is recorded as “reduced mineralized nodule formation; also recorded: partial inhibition”. Also, the “new bone formation in BMMSC implants” value in experiment [5] is “a reduction in new bone formation; also recorded: slightly inhibited”.

B3: IL-17A: Recombinant murine IL-17A purchased from PeproTech (protein, UniProt Q62386 26-158, looked up)
Interleukin-17A: AAIIPQSSACPNTEAKDFLQNVKVNLKVFNSLGAKVSSRRPSDYLNRSTSPWTLHRNEDPDRYPSVIWEAQCRHQRCVNAEGKLDHHMNSVLIQQEILVLKREPESCPFTFRVEKMLVGVGCTCVASIVRQAA
Consider B3, for which the “BMMSC death / viability” value in the experiment with BMMSCs [3] (toluidine blue staining) is “no effect”. Also, in the experiment with BMMSCs [4] (setting [7]), the “mineralized nodule formation / osteogenic differentiation of BMMSCs” value is recorded as “no inhibition effect”. Moreover, the “new bone formation in BMMSC implants” value is on record as “no inhibitory effect” in experiment [5] and “no inhibitive effect” in experiment [5] (listed as IL-17).

B4: IFN-γ: Recombinant murine IFN-γ purchased from PeproTech (protein, UniProt P01580 23-155, looked up)
Interferon gamma: HGTVIESLESLNNYFNSSGIDVEEKSLFLDIWRNWQKDGDMKILQSQIISFYLRLFEVLKDNQAISNNISVIESHLITTFFSNSKAKKDAFMSIAKFEVNNPQVQRQAFNELIRVVHQLLPESSLRKRKRSRC
For B4, the “TNF-α-induced BMMSC apoptosis” value in the experiment on BMMSCs [3] (IFN-γ 50 ng/ml added to TNF-α 0, 5, 50, 100 ng/ml, flow cytometric analysis) is “significantly enhanced TNF-α-induced BMMSC apoptosis”; with BMMSCs [3] (IFN-γ 50 ng/ml added to TNF-α 50-200 ng/ml, toluidine blue staining), “synergistically enhanced; also recorded: significantly enhanced BMMSC apoptosis”; in the experiment with BMMSCs [3] (IFN-γ 50 ng/ml with TNF-α 20 ng/ml, 7AAD/Annexin staining), “accelerated; also recorded: enhanced”. Besides, the BMMSC death result was “dose dependent BMMSC death; also recorded: correlated with IFN-γ concentration” in the experiment with BMMSCs [3] (IFN-γ 1 to 50 ng/ml with TNF-α 50 ng/ml) and “no any BMMSC survived; also recorded: complete BMMSC apoptosis” with BMMSCs [3] (IFN-γ 100-200 ng/ml with TNF-α 50 ng/ml). Also, the “BMMSC death / viability” value in the experiment with BMMSCs [3] (toluidine blue staining) is listed as “no effect; also recorded: not able to induce BMMSC apoptosis”. In experiment [6] (50 ng/ml IFN-γ), the “Smad 6 elevation and inhibition of osteogenic genes” value is recorded as “not observed”. Also, the “Smad 6 expression” value in experiment [6] (200 ng/ml IFN-γ) is recorded as “elevated; also recorded: up-regulated expression”. For the same molecule, the “expression of osteogenic genes Runx2, ALP and OCN” value in experiment [6] (200 ng/ml IFN-γ) is “inhibited; also recorded: down-regulated expression”. For the same molecule, in experiment [6] (setting [8]), the “expression levels of Smad 6 and Runx2” value was “failed to block osteogenesis and alter expression levels of Smad 6 and Runx2; also recorded: failed to reduce ostoegenic differentiation and alter expression levels of Smad 6 and Runx2”. In addition, in experiment [6] (IFN-γ-treated BMMSCs), the “expression level of Smad 7” value is “not altered”. Besides, the figures for the “mineralized nodule formation / osteogenic differentiation of BMMSCs” value in the experiment on BMMSCs [4] (50 ng/ml IFN-γ) and with BMMSCs [4] (setting [7]) were “no significant inhibitive effect; also recorded: no inhibitory effect” and “significantly inhibited mineralized nodule formation; also recorded: significant reduction in mineralized nodule formation; also recorded: inhibited osteogenic differentiation”, respectively. Also, the “osteogenesis of Fas-deficient BMMSCs” value in the experiment with BMMSCs [4] (setting [8]) is “failed to block osteogenesis; also recorded: failed to reduce ostoegenic differentiation”. Moreover, the Fas expression entry in experiment [1] (setting [9]) is reported as “up-regulated expression of Fas; also recorded: activated”. In addition, the “activation of caspase 3 and caspase 8” value in experiment [1] (setting [9]) was “no activation of caspase 3 and caspase 8; also recorded: without activating caspase 3 and caspase 8”. Also, the “new bone formation in BMMSC implants” value in experiment [5] is listed as “completely blockage of new bone formation; also recorded: inhibited subcutaneous bone formation; also recorded: reduced BMMSC-mediated bone formation; also recorded: significantly reduced bone formation”.
